Source: article PMC7772775, “The uncharacterized protein FAM47E interacts with PRMT5 and regulates its functions” (Life Science Alliance, 2020)

Target: T1, recombinant His-tagged PRMT5 (human, UniProt O14744-1 1-637)
T1 construct: Protein arginine methyltransferase 5 (PRMT5), full length, NM_006109.4; Cloned in pET28a; also called His-PRMT5; His-RMT5; source: bacterial expression, purified
Assay: pull-down; 50 ug GST or GST-FAM47E on glutathione sepharose 4B, blocked with 5% BSA; 25 ug His-PRMT5 in 10 mM Tris, 150 mM NaCl, 0.5 mM EDTA, 0.1% NP40, 3 h at 4°C; washed with 300 mM NaCl, 0.5% NP40; probed with His antibody
Conditions: both partners purified

T1 sequence (O14744 whole entry): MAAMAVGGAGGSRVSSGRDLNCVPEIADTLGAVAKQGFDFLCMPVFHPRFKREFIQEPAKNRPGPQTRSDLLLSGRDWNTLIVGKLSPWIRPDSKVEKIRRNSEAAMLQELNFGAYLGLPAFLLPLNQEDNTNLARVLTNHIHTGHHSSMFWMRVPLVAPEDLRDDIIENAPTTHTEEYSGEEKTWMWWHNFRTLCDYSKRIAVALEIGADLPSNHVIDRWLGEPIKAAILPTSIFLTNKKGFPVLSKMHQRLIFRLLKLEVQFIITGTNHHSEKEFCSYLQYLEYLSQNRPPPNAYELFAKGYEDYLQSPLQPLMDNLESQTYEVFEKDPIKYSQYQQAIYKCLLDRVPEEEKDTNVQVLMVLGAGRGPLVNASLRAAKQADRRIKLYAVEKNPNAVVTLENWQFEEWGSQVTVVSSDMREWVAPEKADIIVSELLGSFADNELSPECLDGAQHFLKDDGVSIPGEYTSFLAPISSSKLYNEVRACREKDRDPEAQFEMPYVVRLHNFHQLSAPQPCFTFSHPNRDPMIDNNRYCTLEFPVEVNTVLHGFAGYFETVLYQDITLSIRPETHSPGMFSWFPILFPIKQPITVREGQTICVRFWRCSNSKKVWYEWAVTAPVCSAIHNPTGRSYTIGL

binding result: binds
B1: recombinant GST-tagged FAM47E (natural protein, human, UniProt Q6ZV65-2 1-295, looked up)
chain: MQMSVPCVLSSLQNHEPNKPLFTTQSQLLSKVLEVLDPDRKLEDTWAYCQDTRKGMKEPTKLLKKHSTQVYLGPSKKTSVSNAGQWLYEEKPHKMDLLHENGPRPGLHENVCKAVSDFCKWVTTFGISDIDEEFILKQFDIDYETKPSHDALHTMKLNQVPLELKRSVGLSKLQETEFFQKLGYERKLQKPQNPYKPKWVKMRYGAWYLNPKLWKKQRVDEPLVDPEVSHKAQEENFKKELQEQEELLADLHGTVAFKDFILSRGYRTPRFLENMYIGKECKRACNKTPIKRTQA
notes: Cloned in pGEX-6P2; also called GST-FAM47E; pGEX-FAM47E; source: bacterial expression, purified
